Measurements from the supplement of paper PMC7125110.
± gives the standard error. For some assays here: Variants at the floor of the assay were thinned out.

B1: glmS ribozyme (parent)
chain: AUAAAAGCGCCAGAACUACAGAAAUGUAGUUGACGAGGAGGAGGUUUAUCGAAUUUUCGGCGGAUGCCUCCAAA

Columns and labels:
Conditions in all cases: with glucosamine-6-phosphate
[1] = variants of: B1; test: kcat; higher = faster cleavage; RNA array
Method in brief: (§1)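 Glucosamine-6-phosphate in HEPES/KCl/Mg(OAc)2 buffer, at 40 μM to 10 mM, was flowed over barcoded ribozyme variants transcribed in situ by E. coli RNA polymerase on sequenced MiSeq chips. Tracking was through a hybridised Cy3 probe at 37 °C. kobs, kcat and KM came from exponential decay fits and weighted Michaelis–Menten fits of normalised per-tile medians.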

[2] = variants of: B1; test: KM; higher = weaker cofactor use; RNA array
Method in brief: as §1

[3] = variants of: B1; test: self-cleavage kobs at 640 uM GlcN6P; higher = faster cleavage; RNA array
Method in brief: as §1

[4] = variants of: B1; test: self-cleavage kobs at 2500 uM GlcN6P; higher = faster cleavage; RNA array
Method in brief: as §1

[5] = variants of: B1; test: self-cleavage kobs at 10000 uM GlcN6P; higher = faster cleavage; RNA array
Method in brief: as §1

[6] = variants of: B1; test: self-cleavage kobs at 160 uM GlcN6P; higher = faster cleavage; RNA array
Method in brief: as §1

[7] = variants of: B1; test: self-cleavage kobs at 40 uM GlcN6P; higher = faster cleavage; RNA array
Method in brief: as §1

| Variant | kcat [1] [s⁻¹] | KM [2] [µM] | self-cleavage kobs at 640 uM GlcN6P [3] [s⁻¹] | self-cleavage kobs at 2500 uM GlcN6P [4] [s⁻¹] | self-cleavage kobs at 10000 uM GlcN6P [5] [s⁻¹] | self-cleavage kobs at 160 uM GlcN6P [6] [s⁻¹] | self-cleavage kobs at 40 uM GlcN6P [7] [s⁻¹] |
| --- | --- | --- | --- | --- | --- | --- | --- |
| G44A A53U | 0.000232 ± 3.9e-05 | 1820 ± 680 | 5.47e-05 ± 1.1e-05 | 0.000174 ± 2.8e-05 | 0.000182 ± 2.7e-05 | – | – |
| A39C A64C | 4.47e-05 ± 2.7e-06 | – | – | 4.35e-05 ± 1.6e-05 | 4.27e-05 ± 1.3e-05 | < 1e-05 | – |
| G7C A53G | < 1e-05 | – | – | – | < 1e-05 | – | – |
| A12C C67G | 0.00173 ± 0.00067 | – | 0.000444 ± 5.8e-05 | 0.00106 ± 0.00012 | 0.00265 ± 0.00032 | 0.000199 ± 2.4e-05 | 6.89e-05 ± 6e-06 |
| U31C U55G | 0.0059 ± 0.0019 | 2750 ± 1200 | 0.00104 ± 0.00018 | 0.0022 ± 0.00033 | 0.00547 ± 0.00061 | 0.000291 ± 3.8e-05 | 0.000126 ± 1.5e-05 |
| A39U G66U | 0.0039 ± 0.0011 | 2010 ± 860 | 0.000735 ± 8.7e-05 | 0.0018 ± 0.00025 | 0.00372 ± 0.00032 | 0.000292 ± 5.6e-05 | 0.000107 ± 1e-05 |
| C16U G51A C61G | 1.5e-05 ± 3.9e-06 | – | – | – | – | – | – |
| A48G C58U | 1.71e-05 ± 2.1e-06 | – | – | – | – | – | – |
| A15U G32C | 0.000139 ± 7.8e-06 | 2550 ± 370 | 3.14e-05 ± 7.2e-06 | 6.49e-05 ± 8.6e-06 | 0.000112 ± 9.6e-06 | – | – |
| A33U C67A | 7.68e-05 ± 3.3e-06 | 4870 ± 530 | – | 2.58e-05 ± 7.7e-06 | 5.17e-05 ± 6e-06 | – | – |
| G40C C61U | < 1e-05 | – | < 1e-05 | – | – | < 1e-05 | < 1e-05 |
| U55C G66C | 0.00112 ± 9.6e-05 | 1950 ± 340 | 0.000336 ± 7.1e-05 | 0.000678 ± 0.00012 | 0.000913 ± 9.7e-05 | 7.47e-05 ± 1.8e-05 | – |
| G32U U47A | 0.000688 ± 0.00026 | – | 8.3e-05 ± 2e-05 | 0.000375 ± 0.00014 | 0.000493 ± 0.00011 | 5.78e-05 ± 1.8e-05 | – |
| U56A A64U | 5.11e-05 ± 2e-06 | 1250 ± 250 | – | 3.54e-05 ± 1.6e-05 | 4.52e-05 ± 1e-05 | – | – |
| U47C A64U | 0.000108 ± 8.5e-06 | 363 ± 170 | 7.89e-05 ± 1.8e-05 | 9.46e-05 ± 2.2e-05 | 0.000102 ± 1.2e-05 | – | – |
| A12U U56A U65G | 0.00677 ± 0.0022 | 6820 ± 3000 | 0.000445 ± 0.00012 | 0.00177 ± 0.00048 | 0.00413 ± 0.00071 | 0.00018 ± 4e-05 | 6.29e-05 ± 2e-05 |

| Variant | kcat [1] [s⁻¹] | KM [2] [µM] | self-cleavage kobs at 640 uM GlcN6P [3] [s⁻¹] | self-cleavage kobs at 2500 uM GlcN6P [4] [s⁻¹] | self-cleavage kobs at 10000 uM GlcN6P [5] [s⁻¹] | self-cleavage kobs at 160 uM GlcN6P [6] [s⁻¹] | self-cleavage kobs at 40 uM GlcN6P [7] [s⁻¹] |
| --- | --- | --- | --- | --- | --- | --- | --- |
| G32C A53C | 3.63e-05 ± 2.4e-06 | – | < 1e-05 | – | – | < 1e-05 | < 1e-05 |
| A53U U65C | 0.000266 ± 3.1e-05 | 1370 ± 310 | 8.76e-05 ± 1.6e-05 | 0.000196 ± 5.3e-05 | 0.000222 ± 4.6e-05 | – | – |
| G13A U49C | < 1e-05 | – | – | – | < 1e-05 | – | < 1e-05 |
| G41C U47A | 0.000354 ± 1.6e-05 | 4510 ± 420 | 4.21e-05 ± 1.2e-05 | 0.000134 ± 2.8e-05 | 0.000243 ± 2.7e-05 | – | – |
| G41A G66C | 3.76e-05 ± 1.2e-06 | 1410 ± 200 | – | 2.49e-05 ± 1.2e-05 | 3.27e-05 ± 9.4e-06 | – | – |
| A39U A42U U55G G66U | 0.000223 ± 7.5e-06 | 1100 ± 96 | 8.2e-05 ± 2.5e-05 | 0.000166 ± 5.4e-05 | 0.000198 ± 3.5e-05 | – | – |
| U30C U46C C50U U69C | 1.66e-05 ± 5e-06 | – | – | – | – | – | – |
| C16G U45A | 0.0107 ± 0.0033 | 2340 ± 1100 | 0.00226 ± 0.00044 | 0.00423 ± 0.00082 | 0.0101 ± 0.0013 | 0.00048 ± 0.00013 | 0.000245 ± 3.1e-05 |
| G62C C70G C71A | 3.99e-05 ± 1.8e-05 | – | 6.26e-05 ± 2.7e-05 | 5.21e-05 ± 2.2e-05 | – | – | – |
| A12G G66U C67U | 8.1e-05 ± 2.4e-06 | 1610 ± 110 | – | 4.93e-05 ± 2.1e-05 | – | – | < 1e-05 |
| A14U G32A | 0.0126 ± 0.0035 | 3720 ± 1400 | 0.00156 ± 0.00027 | 0.00376 ± 0.0007 | 0.0102 ± 0.001 | 0.00046 ± 0.00011 | 0.000167 ± 1.7e-05 |
| U56A C70G | 0.000119 ± 1.4e-05 | – | 0.000105 ± 1.1e-05 | 0.000153 ± 1.5e-05 | 0.0001 ± 1.1e-05 | 8.18e-05 ± 1e-05 | 4.01e-05 ± 1e-05 |
| A14U C70U C71G | 4.59e-05 ± 1.2e-05 | – | 6.53e-05 ± 1.7e-05 | 3.73e-05 ± 1.3e-05 | 3.81e-05 ± 1.8e-05 | – | – |
| U30A G40U | 0.000556 ± 6.4e-05 | 2160 ± 580 | 0.000117 ± 3e-05 | 0.000367 ± 9e-05 | 0.000446 ± 6.3e-05 | – | – |
| C11A A15G C16A G29U | 0.000222 ± 4.3e-05 | 2210 ± 1100 | 6.91e-05 ± 2.4e-05 | 0.000102 ± 2.4e-05 | 0.000192 ± 3.5e-05 | – | – |
| U30A U47G | 0.000918 ± 0.00028 | – | 0.000406 ± 8.6e-05 | 0.000481 ± 0.00024 | 0.00109 ± 0.00021 | – | 7.81e-05 ± 2.4e-05 |
